T1: Cyno PRLR (Macaca fascicularis, UniProt A0A2K5WXK1)
T1 construct: antibodies against human and cynomolgus PRLR ECD
T1 sequence (A0A2K5WXK1 25-234): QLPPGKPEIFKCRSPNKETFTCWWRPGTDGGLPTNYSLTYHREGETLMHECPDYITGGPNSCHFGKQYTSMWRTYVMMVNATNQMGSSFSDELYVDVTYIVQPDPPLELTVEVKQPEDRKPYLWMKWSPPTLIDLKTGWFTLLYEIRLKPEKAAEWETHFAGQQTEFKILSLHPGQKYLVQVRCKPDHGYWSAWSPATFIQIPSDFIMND

T2: Human PRLR (Homo sapiens, UniProt P16471)
T2 construct: His6 (C); made in house; host or cells: Tn5 insect cells, baculovirus
T2 sequence (P16471 25-234): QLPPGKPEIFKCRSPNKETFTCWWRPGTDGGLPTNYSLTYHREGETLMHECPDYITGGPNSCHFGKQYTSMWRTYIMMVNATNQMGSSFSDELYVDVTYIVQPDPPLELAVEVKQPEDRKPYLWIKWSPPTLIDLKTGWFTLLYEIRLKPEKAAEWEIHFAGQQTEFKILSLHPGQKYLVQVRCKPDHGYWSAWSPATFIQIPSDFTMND

T3: Mouse PRLR (Mus musculus, UniProt Q08501)
T3 sequence (Q08501 20-229 limits assumed): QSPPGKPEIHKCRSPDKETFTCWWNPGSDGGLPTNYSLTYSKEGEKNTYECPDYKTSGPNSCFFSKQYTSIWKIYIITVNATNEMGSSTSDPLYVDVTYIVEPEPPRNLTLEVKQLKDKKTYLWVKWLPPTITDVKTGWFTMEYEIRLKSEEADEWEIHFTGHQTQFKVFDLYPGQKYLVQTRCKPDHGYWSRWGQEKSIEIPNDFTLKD

T4: Rat PRLR (Rattus norvegicus, UniProt P05710)
T4 sequence (P05710 20-229 limits assumed): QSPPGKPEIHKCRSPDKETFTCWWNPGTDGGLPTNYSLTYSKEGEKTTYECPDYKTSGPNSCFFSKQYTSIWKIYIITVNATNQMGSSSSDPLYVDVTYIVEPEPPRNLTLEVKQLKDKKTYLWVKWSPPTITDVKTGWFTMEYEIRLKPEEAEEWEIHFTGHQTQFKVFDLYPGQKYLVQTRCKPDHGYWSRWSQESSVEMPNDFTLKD

T5: human PRLR ECD (Homo sapiens, UniProt P16471)
T5 construct: His6 (C); made in house; host or cells: Tn5 insect cells, baculovirus
T5 sequence (P16471 25-234): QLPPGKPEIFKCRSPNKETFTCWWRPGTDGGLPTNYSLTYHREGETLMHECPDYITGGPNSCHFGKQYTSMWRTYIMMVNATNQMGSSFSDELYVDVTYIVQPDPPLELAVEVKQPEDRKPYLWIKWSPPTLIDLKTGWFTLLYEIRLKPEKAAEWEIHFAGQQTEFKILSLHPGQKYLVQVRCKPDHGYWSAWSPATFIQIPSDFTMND

T6: cynomolgus PRLR ECD (Macaca fascicularis, UniProt A0A2K5WXK1)
T6 construct: antibodies against human and cynomolgus PRLR ECD
T6 sequence (A0A2K5WXK1 25-234): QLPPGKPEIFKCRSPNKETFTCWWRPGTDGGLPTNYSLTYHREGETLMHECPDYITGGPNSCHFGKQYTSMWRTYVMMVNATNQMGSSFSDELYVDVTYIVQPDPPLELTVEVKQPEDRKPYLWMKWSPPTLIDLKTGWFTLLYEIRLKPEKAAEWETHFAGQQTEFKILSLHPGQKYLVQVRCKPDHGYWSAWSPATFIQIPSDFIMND


Experiments:
[1] = tested on: PRL-induced phospho-PRLR and phospho-Stat5; assay: PRL-induced PRLR and STAT5 phosphorylation in T47D cells by Western blot; format: cell-based, human
Description: Cells were pre-treated with 1 ug/ml mAb prior to 30 min stimulation with 50 ng/ml PRL. Lysates were analyzed for the presence of phospho-PRLR using antibodies specific for phosphotyrosine residues 546 and 611 of the PRLR.
T47D cells were incubated with 1 or 10 ug/ml mAb, then treated with or without PRL (50 ng/ml) for an additional 30 min.
The ability of selected antibodies to inhibit PRL-induced phosphorylation of STAT5 and AKT was determined as follows. Cells were seeded overnight in 6 well plates at a density of 3×10^5 cells/ml in phenol red-free RPMI/10% FBS. The following day, media was replaced with serum-free RPMI for 30 min. In some experiments, anti-PRLR or non-specific control antibodies were incubated with cells during this serum starvation period. 50 ng/ml PRL was then added to wells for 30 min, after which cells were rinsed once in PBS and lysed in a buffer consisting of 50 mM Tris-HCl, pH7.5, 150 mM NaCl, 1 mM EDTA, 1% NP-40, 1 mM Na3OV4, 50 mM NaF, 0.25% deoxycholate and protease inhibitors. Tubes were spun down at 14,000 rpm in a refrigerated microfuge and lysates were quantitated using BCA reagents. 30 μg of whole cell lysate was separated by 10% SDS-PAGE and proteins were detected using phospho-specific antibodies for STAT5A/B (Y694/Y699, Upstate) or PRLR (Y546/Y611, in-house) and ECL. Equal protein loading was determined by staining with antibodies specific for total STAT5 (BD) or PRLR (Zymed) or AKT (Cell Signalling). Results of a representative assay of effect of a PRLR-specific antibody on PRLR intracellular phosphorylation are shown in FIG. 6.
Chimeric mAbs were analyzed for their ability to inhibit the proliferation and survival of BaF/PRLR cells [FIG. 11]. […] In order to assess the PRLR signal-neutralizing capability of the chimeric antibodies in a human breast cancer model, T47D cells were treated with 1 ug/ml mAb for 30 min prior to PRL stimulation. At the same time, additional cell samples were incubated with antibody alone to examine any potential agonism gained through chimerization of the antibody candidates.
Antibodies were assessed in target modulation and cell proliferation assays. FIG. 16 depicts the effect of 2 concentrations of chXHA.06.642 and HUMAN ENGINEERED™ antibodies he.06.642-1 and he.06.642-2, on PRL-induced Stat5 phosphorylation in T47D cells. […] Similar results were found for chXHA.06.275 variants.

Cyno PRLR = target: T1, Cyno PRLR; assay: Cross species affinity analysis on covalently immobilized antibodies; format: binding, cynomolgus; conditions: Table 11, Cyno; covalently immobilized antibody; in 1/s
Description: (§1) In order to compare rat and mouse cross reactivity using covalently immobilized antibodies, a CM4 chip was coupled with he.06.642-2 and he.06.275-4 antibodies via standard EDC-NHS amine coupling chemistries according to the recommended protocol from BIACORE® Inc. The PRLR ECD injections were performed at five concentrations in a three fold titration series starting at 111 nM and going down to 1.37 nM. Regeneration was performed with Glycine pH3.0. The affinity of all of the HE variants of XHA.06.642 and XHA.06.275 are very similar to the affinity of the parental chimeric antibody. […] Antibody he.06.275-4 binds to Cyno PRLR with 5 fold weaker affinity than Human PRLR.

Human PRLR = target: T2, Human PRLR; assay: as above; format: binding; conditions: Table 11, Human; covalently immobilized antibody; in 1/s
Description: as §1

Mouse PRLR = target: T3, Mouse PRLR; assay: as above; format: binding; conditions: for binding to Mouse PRLR (in words): compared with human PRLR
Description: as §1

Rat PRLR = target: T4, Rat PRLR; assay: as above; format: binding; conditions: for binding to Rat PRLR (in words): compared with human PRLR
Description: as §1

human PRLR ECD = target: T5, human PRLR ECD; assay: Biacore kinetic titration, antibody captured on Protein A/G; format: binding; conditions: Table 9, Human PRLR ECD; unit not given
Description: (§2) Affinity of the chimerized and HUMAN ENGINEERED™ antibodies determined by Biacore analysis. Briefly, a CM5 sensor chip (Biacore) immobilized with Protein A/G (Pierce) via NHS/EDC was used to capture approximately 600 RU of antibody on the chip surface. Five concentrations of PRLR ECD beginning at 5 ug/mL (185 nM) and serially diluted at 5× dilution to 0.3 nM were injected from lowest to highest concentration in the kinetic titration injection mode, and 15 minutes of dissociation data was collected. The experiments were double-referenced, i.e. an adjacent flow cell response was subtracted automatically, and the response from a buffer injection experiment was subtracted from the experimental data set. Kinetic and derived parameters (ka, kd and KD) were determined by fitting to a 1:1 Langmuir model using BiaEval software customized to the kinetic titration injection mode. Affinity measurements of both chimeric and all HUMAN ENGINEERED™ antibodies against human and cynomolgus PRLR ECD are summarized in Table 9 and Table 10.

cynomolgus PRLR ECD = target: T6, cynomolgus PRLR ECD; assay: as above; format: binding; conditions: Table 9, Cyno PRLR ECD; unit not given
Description: as §2

[2] = Solubility in PBS and aggregation state by size exclusion chromatography; format: physicochemical
Description: Elution of the major peak was by […] glycine pH 3.5. Pooled material was dialyzed into PBS and concentrated in centrifugal concentrators with a nominal molecular weight cut-off of 30 kD. Final purities were >95% and overall yields were approximately 60%. The final pools were assayed for endotoxin using an Endosafe PTS LAL unit (Charles River) or the QCL-1000 Chromogenic LAL Endpoint Assay (Lonza), and the results were <0.05 EU/mg (below the limit of detection) for all the antibodies. Aggregation state of the chimeric antibody he.06.642-2 was determined to be monomeric by SEC on a Superdex 200 10/300 GL column (GE Healthcare).

Row | Molecule | agonism: induction of PRLR signaling by antibody alone ([1]; T47D cells treated with mAb alone) | block of PRL-induced signaling (phospho-PRLR, phospho-Stat5) ([1]; T47D cells, 1 or 10 ug/ml mAb, then PRL 50 ng/ml 30 min) | koff (Cyno PRLR) | koff (Human PRLR) | Murine KD/Human KD (Mouse PRLR) | koff (Mouse PRLR; Table 11, Murin, covalently immobilized antibody, in 1/s) | binding to Mouse PRLR (in words) (Mouse PRLR) | Rat KD/Human KD (Rat PRLR) | koff (Rat PRLR; Table 11, Rat, covalently immobilized antibody, in 1/s) | binding to Rat PRLR (in words) (Rat PRLR) | ka (human PRLR ECD) | kd (human PRLR ECD) | ka (cynomolgus PRLR ECD) | kd (cynomolgus PRLR ECD) | aggregation state by size exclusion chromatography [2]
1 | he.06.642-2: HUMAN-ENGINEERED antibody from XHA.06.642; variable regions SEQ ID NO: 88 and SEQ ID NO: 90 by order of listing (antibody, V domains shown) VH: EVQLVESGGGLVQPGGSLRLSCAVSGFTFSSYGMSWVRQAPGKGLEWVATVSSGGTYTYYPDSVKGRFTISRDNSKNTLYLQMNSLRAEDTAVYYCARHRGNYYATYYYAMDYWGQGTLVTVSS VL: DIVLTQSPDSLAVSLGERATINCKASKSVSTSGYTYMHWYQQKPGQPPKLLIYLASNRESGVPDRFSGSGSGTDFTLTISPVQAEDVATYYCQHSGELPPSFGQGTKLEIK | neither antibody displayed any agonistic activity | complete p-Stat5 signal abrogation | 6.0E−03 | 9.1E−04 | Murine KD/Human KD = 1 | 3.1E−04 | equivalent affinity | Rat KD/Human KD = 0.75 | 1.4E−04 | equivalent affinity | 1.7E+05 | 5.3E−04 | 1.8E+05 | 8.3E−03 | monomeric
2 | he.06.275-4: HUMAN-ENGINEERED antibody from XHA.06.275; variable regions SEQ ID NO: 92 and SEQ ID NO: 94 by order of listing (antibody, V domains shown) VH: QVQLQESGPGLVKPSQTLSLTCTVSGYSITSDYAWNWIRQFPGKGLEWMGYISYSGSTSYNPSLKSRITISRDTSKNQFSLQLNSVTAADTAVYFCARDYGYVFDYWGQGTTLTVSS VL: DVQITQSPSSLSASPGDRITLTCRASKNIYKYLAWYQEKPGKANKLLIYSGSTLHSGIPSRFSGSGSGTDFTLTISSLQPEDFAMYYCQQHNDYPYTFGQGTKLEIK |  |  | 8.2E−04 | 4.5E−04 | Murine KD/Human KD = 13,548 |  | does not bind effectively |  |  | does not bind effectively | 6.2E+05 | 3.2E−04 | 3.6E+05 | 6.0E−04 | 

Reference: patent US9005614B2, “PRLR-specific antibody and uses thereof” (Novartis AG, priority 2006, dated 2015)
